Measurements from patent publication US20170129959A1.

Experiments:
[1] = biological target: Recombinant CD127 Fc Chimera (10975-H03H, Sino Biological) (human) (UniProt P16871); assay: SPR (Biacore 3000), CD127Fc immobilised on CM5 chip, antibody injected, Bivalent analyte model
[2] = biological target: Recombinant hCD127 (Sino Biologicals, reference 10975-H08H) (human) (UniProt P16871); assay: ELISA, recombinant hCD127 coated on plastic at 1 µg/ml, antibody titrated; printed as ED 50
[3] = biological target: Recombinant hCD127 (Sino Biologicals, reference 10975-H08H) (human) (UniProt P16871); assay: ELISA on immobilised recombinant hCD127
[4] = biological target: Human CD127 (IL-7 receptor alpha chain) expressed on cells (human) (UniProt P16871); assay: cell-based or functional assay
Human CD127 (IL-7 receptor alpha chain) expressed on cells (human), sequence (P16871 21-459 I66T/V138I): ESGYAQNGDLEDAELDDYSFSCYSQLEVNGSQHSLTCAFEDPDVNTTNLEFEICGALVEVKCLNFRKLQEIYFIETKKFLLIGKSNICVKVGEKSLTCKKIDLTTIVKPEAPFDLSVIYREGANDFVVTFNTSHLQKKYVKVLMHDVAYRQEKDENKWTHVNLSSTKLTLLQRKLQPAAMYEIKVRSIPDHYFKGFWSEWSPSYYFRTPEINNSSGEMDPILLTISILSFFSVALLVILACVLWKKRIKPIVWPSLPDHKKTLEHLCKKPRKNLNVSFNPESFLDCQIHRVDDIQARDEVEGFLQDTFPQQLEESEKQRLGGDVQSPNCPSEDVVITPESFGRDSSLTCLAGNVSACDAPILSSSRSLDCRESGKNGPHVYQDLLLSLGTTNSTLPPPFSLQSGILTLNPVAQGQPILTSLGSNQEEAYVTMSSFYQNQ

Recombinant CD127 Fc Chimera (10975-H03H, Sino Biological) (human), sequence (P16871 21-239 I66T/V138I limits assumed): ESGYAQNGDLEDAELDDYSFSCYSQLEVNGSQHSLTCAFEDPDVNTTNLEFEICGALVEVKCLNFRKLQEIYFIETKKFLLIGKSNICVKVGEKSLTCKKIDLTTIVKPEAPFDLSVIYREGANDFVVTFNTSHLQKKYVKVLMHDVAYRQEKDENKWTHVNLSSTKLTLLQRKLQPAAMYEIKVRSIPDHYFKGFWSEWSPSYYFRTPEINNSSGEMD
Recombinant hCD127 (Sino Biologicals, reference 10975-H08H) (human), sequence (P16871 21-239 I66T/V138I limits assumed): as above

Row | Binder | Ka [1] [M⁻¹] | Kd [1] [nM] | koff [1] [s⁻¹] | kon [1] [M⁻¹ s⁻¹] | EC50 [2] [mg/L] | EC50 (read off the curve) [3] [mg/L] | inhibition of IL-7 induced pSTAT5+ T lymphocytes (% inhibition at 1000 ng/mL) [4]
1 | MD707-1 (rat anti-human CD127 antibody, previous generation) (antibody, from another filing, V domains shown) VH: AVHLVESGGGLVQPKESLKISCAASGFTFSNAAMFWVRQAPGKGLEWVARIRTKANNYATYYADSVKGRFTISRDDSKSMVYLQMDNVKTDDTAMYYCIVVVLTTTRDYFDYWGQGVMVTVSS VL: DIVLTQAPLSVSVTPGESASISCRSSQSLLTVKGITSLYWFLQKPGKSPQLLMYRMSNLASGVPDRFRGSGSETDFTLKISKVETEDVGVYYCAQFLEYPHTFGAGTKLELKR | 2.19e+09 | 0.456 | 0.000121 | 266000 | 0.123 | 0.1 | –
2 | MD707-13 (anti-human CD127 antibody, WO2013/056984) (antibody, from another filing, V domains shown) VH: QLKESGPGLVQPSQTLSLTCTVSGLSLPNNNIAWIRQSPGKGLEWMGVIWSNGDTDYNSAIRSRLSISRDSSKSQVFLRMNSLQSEDTAMYFCAREGMTTLDYWGQGVVVTVSS VL: EIVLTQSPTTMAASPGEKVTITCRASSSVSYMHWFQQKSGSSPKPWIYDSSDLASGVPDRFSGSGSGTSYSLTISSMEAEDAATYYCLQRSSYPRTFGGGTKLELKR | – | – | – | – | – | – | 50
